# Experimental data: the nanobody polyreactivity screen of Harvey et al. (2022)
# Assay: yeast display, Sf9 membrane polyspecificity reagent, FACS + sequencing; frameworks hold sequencing errors
# How it was run: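 After 36–48 hours of galactose induction, yeast (Saccharomyces cerevisiae BJ5465) displaying a synthetic nanobody library were stained at 4 °C for 1 hour with 10% biotinylated, detergent-solubilized Sf9 membrane reagent. Streptavidin microbeads enriched the stained cells before FACS sorting into low and high (top ~1%) gates on anti-HA and streptavidin fluorescence. Each clone's polyreactivity label reflects its gate of origin.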
row,Sequence,polyreactivity (PSR sort gate)
1,QVQLVESGGGLVQAGGSLRLSCAASGSIFSYKTMGWYRQAPGKERELVAAISSDGSTYYADSVKGRFTISRDNAKNTVYLQMNSLKPEDTAVYYCAATYYPYEHYYWGQGTQVTLSS,low polyreactivity
2,QVQLVESGGGLVQAGGSLRLSCAASGFIFTGNAMGWYRQAPGKERELVAAITQSGGHTSYADSVKGRFTISRDNAKNTVYLQMNSLKPEDTAVYYCNAEYTWPYHGVRNGWFNFKYEYWGQGTQVTVSS,low polyreactivity
3,QVQLVESGGGLVQAGGSLRLSCAASGLTFDKYVMGWYRQAPGKERELVAAITKGGGSTYYADSVKGRFTISRDNAKNTVYLQMNSLKPEDTAVYYCAVTLPLRYWGQGTQVTVSS,high polyreactivity
4,QVQLVESGGALVQAGGSLRLSCSASGSLFIYYAIRWYRQAPGKERELVAAISISGARTYYADSVKGRFTNSRDNAKNTVYLQMNSLKPEDTAVYYCNVSSRRLRGLDYWGQVTQVTVSS,low polyreactivity
5,QVQLVESGGGLVQAGGSLRLSCAASGRIFDTYAMGWYRQAPGKERELVAAITRRGGSTYYADSVKGRFTISRDNAKNTVYLQMNSLKPEDSAVYYCAKSLVNRHYDYWGQGTQVTVSS,low polyreactivity
6,QVQLVESGGGLVQEGGSLRLSCAASGRTFAHYAMGWYKQAPGKERELVAAISWSGGSTYYADSVKGRFTISRDNPKNTVYLQMNILKPEDTGVYYCNTLGGTEYGYWGPGTQVTVSS,high polyreactivity
7,QVQLVESGGGLVQAGGSLRLSCAASGRTFNHYAMGWYSQAPGKVRELVAGITISGGSTYYADSVKGRFTISRDNAKNTVYLQMNSLKPEDTPVYYCKAVYEYYRQSKGNMDYWGQGTQGTVSS,low polyreactivity
8,QVQLQESGGGLVQAGGSLRLSCAASGNIVDADIMGWYRQAPGKEREIVASITDGGSTNYADSLKGRFTISRDHAKNTVYQQMNRLLPEDTAVYYCAAIAYPDIPTYFDYDSDYFYWGQGTQETVSS,high polyreactivity
9,QVQLVESVVGLVQAGGSLRLSCAASGITFNRNAMGWYIEAPGKERELVAAISSGGSTNYADSVKGRFTISRDNAKNTVYLQMNSLKPEDTAVYYCARAQYWYGKGYYYWGQGTQVTVSS,high polyreactivity
10,QVQLVESGGGLVQAGGSLRLSCAASGSTLWYNAMGWYRQAPGKERELVATITAGGGSTYYADSVKGRFTISRDNAKNTVYLQMNSLKPEDTAVYYCATPVASVTGYDYWGQGTQVTVSS,low polyreactivity
11,QVQLVESGGGLVQAGGSLRLSCAASGRIFTSYVMGWYRQAPGKERELVAAITRTGGSTYYADSVKGRFTISRDNAKNTVYLQMNSLKPEDTAVYYCNALTRRQKGGEGGGYWGQGTQVTVSS,high polyreactivity
12,QVQLVESGGGLVQSGGSLRLSCAASGSIFTGYAMGWYRQAPGKERELVAAITGRGTRTYYADSLKGRFTISRDNANNTVSLQMNSLKPEDTAVYYCAAPVGASSYRDYYWGQGTQVNVSS,high polyreactivity
13,QVQLVESGGGLVQAGGSLRLSCAASGSTFRYYVMGWSRQAPGKEMELVAGISYRGGTTYYADSVKGRFTISRDNAKITVYLQMNSMKPEDTAVYYCNAGYTLYHYYSWYAFGYWGQGTQGTVSS,low polyreactivity
14,QVQLVESGGGLVQAGGSLRLSCAASGFILGLNAMGWYRRAPGKEREFVADISWSGDSTYYADSVKGRFTISRDNAKNTVYLQMNSLKPEDTAVYFCAADRYYNWGYYYWGQGTQVTVSS,low polyreactivity
15,QVQLVESGGGLVQAGGSLRLSCAASGFIFGRYAMGWYRQAPGKERELVAAISKTGGRTYYADSVKGRFTISRDNAKNTVYLQMNSLKPEDTAVYYCAAVYKRGMDYWGQGTEVTVSS,high polyreactivity
16,QVQLVESGGGLGQAGGSLRLTCAASGSTFWYYAMGWYRQAPGKERELVAAITSGDSTYYADSVKGRFTISRDNAKKTVYLQMNSLKPEDTAVYYCAADLPWEDGYYFYSGYTEYDYWGQGTQVTVSS,low polyreactivity
17,QVQLVESGGRLVQAGGSLRLSCAASGRIFRYYTMGWYRQAPGKERELVAAITRRGGITNYADSVKGRFTISRDNAKNTVYLQTNSLKPEDTAVYYCAAKYVSQGYDYWGQGTQVTVSS,high polyreactivity
18,QVQLVESGGGLVHAGGSLRLSCAASGTTLAIYAMGWYRQAPGKERELVASISRVGSTNYADSVKGRFTISRDNAKNTVYLQRNSLKPEDTAVYYCAARRSSYVILRAYYYWGQGTQVTVSS,high polyreactivity
19,QVQLVESGGGLVQAGGSLRLSCDASGRIFTTYAMGWYRQAPGKERELVARITWSAGRTYYADSVKGRFTISRDNAKNTVYLQMNSLKPEDTAVYYCAADGGISAGANSGYDYWGQGTQVTVSS,high polyreactivity
20,QVQLVESGGGLVQAGGSLRLSCAASGRTFILNAMGLYRQAPGKERELVAAISWSGGSTYYADSVKGRFTISRDNAKNTVYLQMNSLKPEDTAVYYCAAETYAYLFHTYDYWGQGTQVTVSS,low polyreactivity
21,QVQLVESGGGLVQAGGRLRLSCAASGSIFQKNAMGWYRQAPGKERELVAVITRGGTSTYYADSVKGRFTISRDNAKNTVYLQMNSLKTEDTAVYYCAAKADKRLDYWGQGTQVTVSS,low polyreactivity
22,QVQLVESGGGLVQAGGSLRLSCAASGITFYRYAMGWYRQAPGKERELVAAISRSGGSTYYADSVKGRFTISRDNAKNTVYLQMNSLKPEDTAVDYCAAYILGNRDGYDYWGQGTQVTVSS,high polyreactivity
